Measurements as given in the supplement of paper PMC12764529.
± gives the half width of the 95% confidence interval.

Assay: folding stability dG unfold from chymotrypsin proteolysis; higher = more stable
Outline: (§1)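 How resistant each design was to proteolysis was captured as K50, inferred by Bayesian fitting of sequencing counts. Unfolding free energy was then derived relative to a sequence-predicted unfolded-state K50 and a shared folded-state K50, per protease or combined. Digestion used trypsin and chymotrypsin at 11 threefold-diluted concentrations plus a no-protease condition, on mini-proteins under 80 residues without cysteine in a PA-tagged cDNA display construct. Designs were kept only when AlphaFold2 dimer inter-PAE was above 15.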
With “SAGGSAGGSAGSMTLLATETFPETGKTVKYYKEGDTIYRVDYSDPKNPVVTELSPSDPLKSAGGSAGGSAGG [r17_145_JUSTAS]” the “folding stability dG unfold” value was 2.29 ± 0.054 kcal/mol. In the case of “SAGITITVPPGKPYYVHITMYMFDPNGKLMGPQTIMFPIRVPPDDTIEIPIPFDSPNIRITDISIMPKSAGG [r19_295_TrROS]”, the “folding stability dG unfold” value is reported as 2.54 ± 0.094 kcal/mol. For “SAGGMKIEITVSPVGDVVNVEVKIELPEGPVEVVDETPAEVAPDGSIHIKLKLKLPNGPWLEMEIEVSAGGS [r8_449_JUSTAS]”, the “folding stability dG unfold” value was 3.97 ± 0.15 kcal/mol. For “SAGGSAGGSAGMKTLKIASISTSTSPTNTTLTTVTITSEGVTTTVTFPPGTTLEEVLEQLSAGGSAGGSAGG [r11_1056_JUSTAS]”, the “folding stability dG unfold” value was 0.678 ± 0.11 kcal/mol. For “SAGGSAGGSSYTVSEDPNSSSTTITDPVTGRTVLRSPSSWTVVDPETGEEKSFPAGTVVTLPESAGGSAGGS [r12_584_JUSTAS]”, the “folding stability dG unfold” value was 1.06 ± 0.056 kcal/mol. In the case of “SAGGPPRTVTVFVNDPDGNTYTFTFSDSVPLSTVVANVSKTLGVPLTVDSVTVHPDGTVTITVTNPGSAGGS [r8_285_TrMRF]”, the “folding stability dG unfold” value is reported as 5 ± 0.06 kcal/mol. In the case of “SAGGARREIVIEIEADTLEEALAAAREALAALEDPEDLTVTIVVRLPPPPPPPRPRRVRLDGEEVELRSAGG [r13_718_TrROS_Hall]”, the “folding stability dG unfold” value is reported as 1.32 ± 0.19 kcal/mol. For “SAGGSAGLTLTFGDKEITLTPNPDTDTFTGTYPDGKPFTFKLTDDELYITYPDGTKEKIPLKDIKNSAGGSA [r15_448_TrMRF]”, the “folding stability dG unfold” value was 1.42 ± 0.17 kcal/mol. In the case of “SAGGSAGGSKLGVFEVGGKRYAVKVTDKNGKELTLAIPPELLKKLPKNLKVEVKEVKPGEPIPSAGGSAGGS [r12_419_TrMRF]”, the “folding stability dG unfold” value is reported as 0.738 ± 0.23 kcal/mol. In the case of “SAGGNKNGKPKPTVPFKIMVMKPKPRRNDNNGQEEPRYDMRPVEIEFPLGEEIDLEEALENPDYIFIMSAGG [r13_753_TrROS]”, the “folding stability dG unfold” value is reported as 0.276 ± 0.18 kcal/mol. With “SAGGKVYRLPDGTRVLEVEVDGELYRLVVRRPDGEELVLEFESREEALEAAKALAEAGWEIVAVERVPSAGG [r13_727_TrROS_Hall]” the “folding stability dG unfold” value was 0.807 ± 0.062 kcal/mol. For “SAGGAVEITDISSKTVTEPVTFENGTVVPQERTAGTVTTTENGTPVATVPFTSEEELEEAIARALAESAGGS [r8_21_JUSTAS]”, the “folding stability dG unfold” value was 1.24 ± 0.034 kcal/mol. In the case of “SAGGSAMEEEKPPKVKVRITVELEDGEKLEIEFETKEEAEEAAEALAKELEEKTGLKIKKIEVEEVSAGGSA [r15_140_TrROS_Hall]”, the “folding stability dG unfold” value is reported as 2.96 ± 0.13 kcal/mol. In the case of “SAGSPETVTLPLTVTLPPGVPLSQIEAVLKKNGFTELEITASPTPDGTLRYAIDATMPVSVVEKLIKALSAG [r5_376_JUSTAS]”, the “folding stability dG unfold” value is reported as 2.24 ± 0.042 kcal/mol. For “SAGGSAGGSETVVIKIEVSPEELEKLKEALEEAGYEVEIRVERDENGKLTVTVTIRLPPGVKPSAGGSAGGS [r12_653_TrROS_Hall]”, the “folding stability dG unfold” value was 2.57 ± 0.069 kcal/mol. In the case of “SMIVTEEVSYDPSTNTRTITKTVYEKDENGNLVPVETEVVVEPVEEPPPYVPVIKVPPSNKTPEDRVKVLSA [r9_888_JUSTAS]”, the “folding stability dG unfold” value is reported as 1.02 ± 0.27 kcal/mol. With “SGMPTVTLNVTIEFERERLSFDPKTGKPRLELVKVTKPVTITGFFTSPEEAAAAAEAVRKALEADPEALASA [r9_77_JUSTAS]” the “folding stability dG unfold” value was 2.37 ± 0.034 kcal/mol.

Assay: folding stability dG unfold (combined trypsin and chymotrypsin); higher = more stable
Outline: as §1
With “SAGGSAGGSAGSMTLLATETFPETGKTVKYYKEGDTIYRVDYSDPKNPVVTELSPSDPLKSAGGSAGGSAGG [r17_145_JUSTAS]” the “folding stability dG unfold” value was 2.12 ± 0.086 kcal/mol. For “SAGITITVPPGKPYYVHITMYMFDPNGKLMGPQTIMFPIRVPPDDTIEIPIPFDSPNIRITDISIMPKSAGG [r19_295_TrROS]”, the “folding stability dG unfold” value was 2.4 ± 0.16 kcal/mol. In the case of “SAGGMKIEITVSPVGDVVNVEVKIELPEGPVEVVDETPAEVAPDGSIHIKLKLKLPNGPWLEMEIEVSAGGS [r8_449_JUSTAS]”, the “folding stability dG unfold” value is reported as 3.87 ± 0.33 kcal/mol. In the case of “SAGGSAGGSAGMKTLKIASISTSTSPTNTTLTTVTITSEGVTTTVTFPPGTTLEEVLEQLSAGGSAGGSAGG [r11_1056_JUSTAS]”, the “folding stability dG unfold” value is reported as 0.685 ± 0.1 kcal/mol. In the case of “SAGGSAGGSSYTVSEDPNSSSTTITDPVTGRTVLRSPSSWTVVDPETGEEKSFPAGTVVTLPESAGGSAGGS [r12_584_JUSTAS]”, the “folding stability dG unfold” value is reported as 0.724 ± 0.042 kcal/mol. In the case of “SAGGPPRTVTVFVNDPDGNTYTFTFSDSVPLSTVVANVSKTLGVPLTVDSVTVHPDGTVTITVTNPGSAGGS [r8_285_TrMRF]”, the “folding stability dG unfold” value is reported as 4.96 ± 0.062 kcal/mol. For “SAGGARREIVIEIEADTLEEALAAAREALAALEDPEDLTVTIVVRLPPPPPPPRPRRVRLDGEEVELRSAGG [r13_718_TrROS_Hall]”, the “folding stability dG unfold” value was 1.01 ± 0.22 kcal/mol. For “SAGGSAGLTLTFGDKEITLTPNPDTDTFTGTYPDGKPFTFKLTDDELYITYPDGTKEKIPLKDIKNSAGGSA [r15_448_TrMRF]”, the “folding stability dG unfold” value was 1.54 ± 0.21 kcal/mol. With “SAGGSAGGSKLGVFEVGGKRYAVKVTDKNGKELTLAIPPELLKKLPKNLKVEVKEVKPGEPIPSAGGSAGGS [r12_419_TrMRF]” the “folding stability dG unfold” value was 0.635 ± 0.15 kcal/mol. In the case of “SAGGNKNGKPKPTVPFKIMVMKPKPRRNDNNGQEEPRYDMRPVEIEFPLGEEIDLEEALENPDYIFIMSAGG [r13_753_TrROS]”, the “folding stability dG unfold” value is reported as 0.199 ± 0.15 kcal/mol. For “SAGGKVYRLPDGTRVLEVEVDGELYRLVVRRPDGEELVLEFESREEALEAAKALAEAGWEIVAVERVPSAGG [r13_727_TrROS_Hall]”, the “folding stability dG unfold” value was 0.86 ± 0.06 kcal/mol. For “SAGGAVEITDISSKTVTEPVTFENGTVVPQERTAGTVTTTENGTPVATVPFTSEEELEEAIARALAESAGGS [r8_21_JUSTAS]”, the “folding stability dG unfold” value was 0.869 ± 0.1 kcal/mol. For “SAGGSAMEEEKPPKVKVRITVELEDGEKLEIEFETKEEAEEAAEALAKELEEKTGLKIKKIEVEEVSAGGSA [r15_140_TrROS_Hall]”, the “folding stability dG unfold” value was 2.81 ± 0.23 kcal/mol. For “SAGSPETVTLPLTVTLPPGVPLSQIEAVLKKNGFTELEITASPTPDGTLRYAIDATMPVSVVEKLIKALSAG [r5_376_JUSTAS]”, the “folding stability dG unfold” value was 2.08 ± 0.059 kcal/mol. In the case of “SAGGSAGGSETVVIKIEVSPEELEKLKEALEEAGYEVEIRVERDENGKLTVTVTIRLPPGVKPSAGGSAGGS [r12_653_TrROS_Hall]”, the “folding stability dG unfold” value is reported as 2.86 ± 0.086 kcal/mol. For “SMIVTEEVSYDPSTNTRTITKTVYEKDENGNLVPVETEVVVEPVEEPPPYVPVIKVPPSNKTPEDRVKVLSA [r9_888_JUSTAS]”, the “folding stability dG unfold” value was 0.781 ± 0.35 kcal/mol. With “SGMPTVTLNVTIEFERERLSFDPKTGKPRLELVKVTKPVTITGFFTSPEEAAAAAEAVRKALEADPEALASA [r9_77_JUSTAS]” the “folding stability dG unfold” value was 2.07 ± 0.084 kcal/mol.

Assay: folding stability dG unfold from trypsin proteolysis; higher = more stable
Outline: as §1
In the case of “SAGGSAGGSAGSMTLLATETFPETGKTVKYYKEGDTIYRVDYSDPKNPVVTELSPSDPLKSAGGSAGGSAGG [r17_145_JUSTAS]”, the “folding stability dG unfold” value is reported as 1.68 ± 0.09 kcal/mol. With “SAGITITVPPGKPYYVHITMYMFDPNGKLMGPQTIMFPIRVPPDDTIEIPIPFDSPNIRITDISIMPKSAGG [r19_295_TrROS]” the “folding stability dG unfold” value was 1.98 ± 0.058 kcal/mol. With “SAGGMKIEITVSPVGDVVNVEVKIELPEGPVEVVDETPAEVAPDGSIHIKLKLKLPNGPWLEMEIEVSAGGS [r8_449_JUSTAS]” the “folding stability dG unfold” value was 2.91 ± 0.24 kcal/mol. For “SAGGSAGGSAGMKTLKIASISTSTSPTNTTLTTVTITSEGVTTTVTFPPGTTLEEVLEQLSAGGSAGGSAGG [r11_1056_JUSTAS]”, the “folding stability dG unfold” value was 0.53 ± 0.049 kcal/mol. With “SAGGSAGGSSYTVSEDPNSSSTTITDPVTGRTVLRSPSSWTVVDPETGEEKSFPAGTVVTLPESAGGSAGGS [r12_584_JUSTAS]” the “folding stability dG unfold” value was -0.146 ± 0.13 kcal/mol. For “SAGGPPRTVTVFVNDPDGNTYTFTFSDSVPLSTVVANVSKTLGVPLTVDSVTVHPDGTVTITVTNPGSAGGS [r8_285_TrMRF]”, the “folding stability dG unfold” value was 4.57 ± 0.14 kcal/mol. In the case of “SAGGARREIVIEIEADTLEEALAAAREALAALEDPEDLTVTIVVRLPPPPPPPRPRRVRLDGEEVELRSAGG [r13_718_TrROS_Hall]”, the “folding stability dG unfold” value is reported as -0.384 ± 0.75 kcal/mol. With “SAGGSAGLTLTFGDKEITLTPNPDTDTFTGTYPDGKPFTFKLTDDELYITYPDGTKEKIPLKDIKNSAGGSA [r15_448_TrMRF]” the “folding stability dG unfold” value was 1.58 ± 0.066 kcal/mol. With “SAGGSAGGSKLGVFEVGGKRYAVKVTDKNGKELTLAIPPELLKKLPKNLKVEVKEVKPGEPIPSAGGSAGGS [r12_419_TrMRF]” the “folding stability dG unfold” value was 0.218 ± 0.16 kcal/mol. For “SAGGNKNGKPKPTVPFKIMVMKPKPRRNDNNGQEEPRYDMRPVEIEFPLGEEIDLEEALENPDYIFIMSAGG [r13_753_TrROS]”, the “folding stability dG unfold” value was -0.0176 ± 0.14 kcal/mol. In the case of “SAGGKVYRLPDGTRVLEVEVDGELYRLVVRRPDGEELVLEFESREEALEAAKALAEAGWEIVAVERVPSAGG [r13_727_TrROS_Hall]”, the “folding stability dG unfold” value is reported as 0.787 ± 0.038 kcal/mol. With “SAGGAVEITDISSKTVTEPVTFENGTVVPQERTAGTVTTTENGTPVATVPFTSEEELEEAIARALAESAGGS [r8_21_JUSTAS]” the “folding stability dG unfold” value was -0.276 ± 0.22 kcal/mol. For “SAGGSAMEEEKPPKVKVRITVELEDGEKLEIEFETKEEAEEAAEALAKELEEKTGLKIKKIEVEEVSAGGSA [r15_140_TrROS_Hall]”, the “folding stability dG unfold” value was 2.77 ± 0.11 kcal/mol. With “SAGSPETVTLPLTVTLPPGVPLSQIEAVLKKNGFTELEITASPTPDGTLRYAIDATMPVSVVEKLIKALSAG [r5_376_JUSTAS]” the “folding stability dG unfold” value was 1.8 ± 0.035 kcal/mol. For “SAGGSAGGSETVVIKIEVSPEELEKLKEALEEAGYEVEIRVERDENGKLTVTVTIRLPPGVKPSAGGSAGGS [r12_653_TrROS_Hall]”, the “folding stability dG unfold” value was 3.18 ± 0.17 kcal/mol. With “SMIVTEEVSYDPSTNTRTITKTVYEKDENGNLVPVETEVVVEPVEEPPPYVPVIKVPPSNKTPEDRVKVLSA [r9_888_JUSTAS]” the “folding stability dG unfold” value was -0.035 ± 0.23 kcal/mol. In the case of “SGMPTVTLNVTIEFERERLSFDPKTGKPRLELVKVTKPVTITGFFTSPEEAAAAAEAVRKALEADPEALASA [r9_77_JUSTAS]”, the “folding stability dG unfold” value is reported as 1.7 ± 0.068 kcal/mol.
